Data from patent publication US20020111306A1.
Several values for one entry are separate records, joined by “and”; a condition that tells them apart may be missing. Identical values can stand only once.

Columns and labels:
[1] = molecular target: human MCH1 receptor (MCH1) encoded by plasmid TL231 (pEXJ.HR-TL231) (human); assay: radioligand binding, membranes of Cos-7 cells transfected with MCH1, 0.1 nM radioligand, filtration; nonspecific binding defined with 10 µM unlabeled MCH
[2] = molecular target: human MCH1 receptor (MCH1) encoded by plasmid TL231 (pEXJ.HR-TL231) (human); assay: radioligand binding, membranes of Cos-7 cells transfected with MCH1, 0.1 nM radioligand, filtration
[3] = molecular target: human MCH1 receptor (MCH1) encoded by plasmid TL231 (pEXJ.HR-TL231) (human); assay: cell-based or functional assay
[4] = molecular target: human MCH1 receptor (MCH1) encoded by plasmid TL231 (pEXJ.HR-TL231) (human); assay: cell-based or functional assay; remark: listed apart in the source
[5] = molecular target: mutant human MCH1 receptor encoded by plasmid R114 (M6A, M70A) (human) (UniProt Q99705); assay: cell-based or functional assay
Sequence of UniProt Q99705 (Q99705 whole entry, stated change not applied): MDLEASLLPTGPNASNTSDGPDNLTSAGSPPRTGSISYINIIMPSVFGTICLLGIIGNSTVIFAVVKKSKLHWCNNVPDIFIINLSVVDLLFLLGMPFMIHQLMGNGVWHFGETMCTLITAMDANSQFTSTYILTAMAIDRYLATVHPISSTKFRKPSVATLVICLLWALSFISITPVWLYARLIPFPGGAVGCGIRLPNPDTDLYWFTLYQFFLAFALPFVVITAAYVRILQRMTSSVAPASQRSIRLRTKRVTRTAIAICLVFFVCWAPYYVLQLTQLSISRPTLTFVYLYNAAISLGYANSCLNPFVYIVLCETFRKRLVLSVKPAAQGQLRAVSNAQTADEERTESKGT

[6] = molecular target: mutant (short form) human MCH1 receptor encoded by plasmid BO120 (human); assay: cell-based or functional assay

Sequence of human MCH1 receptor (MCH1) encoded by plasmid TL231 (pEXJ.HR-TL231) (human) (chain, as listed by the source limits assumed): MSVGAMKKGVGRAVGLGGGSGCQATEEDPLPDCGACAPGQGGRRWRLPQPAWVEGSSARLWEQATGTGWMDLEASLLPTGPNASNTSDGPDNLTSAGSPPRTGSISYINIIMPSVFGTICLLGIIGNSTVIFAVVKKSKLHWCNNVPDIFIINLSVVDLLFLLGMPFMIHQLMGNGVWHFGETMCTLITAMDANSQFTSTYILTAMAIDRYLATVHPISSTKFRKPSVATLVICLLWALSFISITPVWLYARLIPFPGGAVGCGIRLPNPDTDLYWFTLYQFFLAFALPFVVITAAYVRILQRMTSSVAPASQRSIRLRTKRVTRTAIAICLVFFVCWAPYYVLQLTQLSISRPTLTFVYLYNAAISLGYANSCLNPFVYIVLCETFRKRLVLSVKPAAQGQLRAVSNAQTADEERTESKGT

Molecule: [^125I]Phe^13,Tyr^19-MCH (from UniProt P20382 147-165) (peptide)
- specific binding (fmol/mg membrane protein) [1]: 80
- specific binding as percent of total binding (% of total binding) [2]: 70

Molecule: Phe^13,Tyr^19-MCH (from UniProt P20382 147-165) (peptide)
- EC50 of extracellular acidification rate (microphysiometer), CHO cells transiently transfected with MCH1 [3]: 51.8 nM

B1: melanin concentrating hormone (MCH) (peptide, UniProt P20382 147-165, looked up)
peptide: DFDMLRCMLGRVYRPCWQV
- EC50 (nM), mobilization of intracellular calcium (FLIPR, fluo-3), COS-7 cells [4]: 60 nM
- inositol phosphate (IP) production, Cos-7 cells co-transfected with MCH1 and a G alpha subunit, 10 µM MCH [4]: 1.4 fold
- Max. Response (RFU), mobilization of intracellular calcium (FLIPR, fluo-3), COS-7 cells [5]: 2270 RFU and 1550 RFU
- EC50 (nM), mobilization of intracellular calcium (FLIPR, fluo-3), COS-7 cells [6]: 3.5 nM
- Max. Response (RFU), mobilization of intracellular calcium (FLIPR, fluo-3), COS-7 cells [6]: 30000 RFU and 25000 RFU
